Experimental data: article PMC10376177
Blank lines part the entries; values can stand above or below the substance they belong to.

Tests used:
Assay in all cases: native gel or EMSA
[1] = biological target: CthedisKatG W90F (Chaetomium thermophilum var. dissitum)
[2] = biological target: CthedisKatG W90V (Chaetomium thermophilum var. dissitum)
[3] = biological target: CthedisKatG, thermophilic catalase–peroxidase from Chaetomium thermophilum var. dissitum (wild type) (Chaetomium thermophilum var. dissitum)

stoichiometry N [1]: 2
Substance: CthedisKatG W90F (enzyme)

stoichiometry N [2]: 2
Substance: CthedisKatG W90V (enzyme)

stoichiometry N [3]: 2
Substance: CthedisKatG, thermophilic catalase–peroxidase from Chaetomium thermophilum var. dissitum (wild type) (enzyme)
